Data taken from publication PMC2918618, “Characterization of the TnsD-attTn7 complex that promotes site-specific insertion of Tn7” (Mobile DNA, 2010).

T1: TnsD wt (Escherichia coli (transposon Tn7)) (UniProt P13991)
T1 sequence: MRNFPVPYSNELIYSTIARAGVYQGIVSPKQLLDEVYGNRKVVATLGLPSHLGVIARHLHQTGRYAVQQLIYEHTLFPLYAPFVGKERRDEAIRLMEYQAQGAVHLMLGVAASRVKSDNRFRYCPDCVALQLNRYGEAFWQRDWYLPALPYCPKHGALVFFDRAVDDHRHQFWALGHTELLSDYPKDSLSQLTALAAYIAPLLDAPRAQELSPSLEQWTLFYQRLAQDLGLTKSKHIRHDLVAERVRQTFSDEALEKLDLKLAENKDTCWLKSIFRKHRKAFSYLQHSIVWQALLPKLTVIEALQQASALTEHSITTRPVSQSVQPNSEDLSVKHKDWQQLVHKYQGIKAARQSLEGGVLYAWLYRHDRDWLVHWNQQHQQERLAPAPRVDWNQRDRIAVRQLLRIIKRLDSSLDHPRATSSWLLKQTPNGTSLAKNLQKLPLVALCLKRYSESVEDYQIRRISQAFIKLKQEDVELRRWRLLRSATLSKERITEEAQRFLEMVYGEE

T2: TnsD (1 to 507) wt (E. coli (transposon Tn7), UniProt P13991 1-508)
T2 construct: TnsD, target site-selector protein of the bacterial transposon Tn7, residues 1 to 507 (full-length TnsD is 507 aa); TnsD was cloned into pDBLeu (ProQuest Two-Hybrid System); also called full-length TnsD; source: yeast two-hybrid fusion
T2 sequence (looked up): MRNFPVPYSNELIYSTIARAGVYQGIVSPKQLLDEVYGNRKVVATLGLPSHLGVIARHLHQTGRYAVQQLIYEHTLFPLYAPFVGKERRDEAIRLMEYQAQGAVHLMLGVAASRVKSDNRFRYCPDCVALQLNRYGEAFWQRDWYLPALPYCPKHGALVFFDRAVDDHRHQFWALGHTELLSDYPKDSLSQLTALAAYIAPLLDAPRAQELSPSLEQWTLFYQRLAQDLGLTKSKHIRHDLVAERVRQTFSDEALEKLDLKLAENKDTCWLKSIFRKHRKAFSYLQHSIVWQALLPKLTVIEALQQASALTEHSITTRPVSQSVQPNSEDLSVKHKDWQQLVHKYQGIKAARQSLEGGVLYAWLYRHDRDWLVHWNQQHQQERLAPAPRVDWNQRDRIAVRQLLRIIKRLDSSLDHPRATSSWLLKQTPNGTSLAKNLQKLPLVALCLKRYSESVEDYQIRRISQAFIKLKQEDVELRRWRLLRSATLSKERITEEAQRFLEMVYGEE

T3: TnsD (1 to 350) (E. coli (transposon Tn7), UniProt P13991 1-350)
T3 construct: TnsD of transposon Tn7, residues 1 to 350; source: yeast two-hybrid fusion
T3 sequence (looked up): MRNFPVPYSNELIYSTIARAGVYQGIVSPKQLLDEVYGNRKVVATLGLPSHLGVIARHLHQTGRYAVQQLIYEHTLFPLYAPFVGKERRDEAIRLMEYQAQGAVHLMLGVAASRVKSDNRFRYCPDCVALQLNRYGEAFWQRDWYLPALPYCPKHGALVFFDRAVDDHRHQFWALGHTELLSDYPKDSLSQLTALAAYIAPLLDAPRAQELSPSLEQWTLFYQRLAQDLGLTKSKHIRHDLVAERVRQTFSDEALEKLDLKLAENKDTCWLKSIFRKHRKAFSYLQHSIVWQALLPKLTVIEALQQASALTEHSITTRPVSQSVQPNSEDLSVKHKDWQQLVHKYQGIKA

T4: TnsD (1 to 399) (E. coli (transposon Tn7), UniProt P13991 1-399)
T4 construct: TnsD of transposon Tn7, residues 1 to 399; source: yeast two-hybrid fusion
T4 sequence (looked up): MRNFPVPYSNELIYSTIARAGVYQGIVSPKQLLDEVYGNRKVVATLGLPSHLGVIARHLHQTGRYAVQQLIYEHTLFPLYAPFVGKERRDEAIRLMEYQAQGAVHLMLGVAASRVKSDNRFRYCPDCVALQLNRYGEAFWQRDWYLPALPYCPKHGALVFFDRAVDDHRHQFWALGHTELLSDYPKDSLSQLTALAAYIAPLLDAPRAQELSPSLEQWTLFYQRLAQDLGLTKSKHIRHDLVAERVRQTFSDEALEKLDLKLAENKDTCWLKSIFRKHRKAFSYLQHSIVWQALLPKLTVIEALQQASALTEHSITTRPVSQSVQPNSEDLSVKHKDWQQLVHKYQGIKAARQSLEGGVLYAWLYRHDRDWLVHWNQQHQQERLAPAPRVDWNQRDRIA

T5: TnsD (1 to 309) (E. coli (transposon Tn7), UniProt P13991 1-309)
T5 construct: TnsD of transposon Tn7, residues 1 to 309; source: yeast two-hybrid fusion
T5 sequence (looked up): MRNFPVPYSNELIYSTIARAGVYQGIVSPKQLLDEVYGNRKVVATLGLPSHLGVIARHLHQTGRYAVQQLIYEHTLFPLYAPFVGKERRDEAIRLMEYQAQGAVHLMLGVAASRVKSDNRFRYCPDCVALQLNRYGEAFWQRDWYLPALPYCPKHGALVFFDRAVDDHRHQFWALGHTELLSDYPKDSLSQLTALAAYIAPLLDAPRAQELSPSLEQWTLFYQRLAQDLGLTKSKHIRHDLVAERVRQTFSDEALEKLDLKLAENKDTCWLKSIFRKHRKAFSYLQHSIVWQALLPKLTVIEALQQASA

T6: TnsD (1 to 375) (E. coli (transposon Tn7), UniProt P13991 1-375)
T6 construct: TnsD of transposon Tn7, residues 1 to 375; source: yeast two-hybrid fusion
T6 sequence (looked up): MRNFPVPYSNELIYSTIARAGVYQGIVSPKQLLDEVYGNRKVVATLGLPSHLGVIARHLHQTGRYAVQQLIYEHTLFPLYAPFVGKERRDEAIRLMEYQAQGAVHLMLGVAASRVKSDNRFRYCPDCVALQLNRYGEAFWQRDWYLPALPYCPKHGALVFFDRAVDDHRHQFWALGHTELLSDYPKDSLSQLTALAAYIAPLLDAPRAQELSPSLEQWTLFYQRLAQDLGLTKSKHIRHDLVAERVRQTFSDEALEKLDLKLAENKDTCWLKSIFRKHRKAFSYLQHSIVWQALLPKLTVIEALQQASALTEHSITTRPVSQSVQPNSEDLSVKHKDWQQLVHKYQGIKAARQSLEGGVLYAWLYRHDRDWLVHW


How the values were obtained:
[1] = target: T1, TnsD wt (Escherichia coli (transposon Tn7)); assay: EMSA; details: Gel-shift buffer not given (as described in ref. 6); TnsD stored in 500 mM KCl, 50 mM Tris-HCl pH 8.0, 1 mM EDTA, 2 mM DTT, 25% glycerol
Jun = assay: two-hybrid; yeast two-hybrid (ProQuest Two-Hybrid System); TnsD in pDBLeu (Gal4-DB), TnsC in pPC86 (Gal4-AD); read-out β-galactosidase activity; empty vectors gave 0.075
Sequence of Jun (P05627 whole entry, the tested form may be a part): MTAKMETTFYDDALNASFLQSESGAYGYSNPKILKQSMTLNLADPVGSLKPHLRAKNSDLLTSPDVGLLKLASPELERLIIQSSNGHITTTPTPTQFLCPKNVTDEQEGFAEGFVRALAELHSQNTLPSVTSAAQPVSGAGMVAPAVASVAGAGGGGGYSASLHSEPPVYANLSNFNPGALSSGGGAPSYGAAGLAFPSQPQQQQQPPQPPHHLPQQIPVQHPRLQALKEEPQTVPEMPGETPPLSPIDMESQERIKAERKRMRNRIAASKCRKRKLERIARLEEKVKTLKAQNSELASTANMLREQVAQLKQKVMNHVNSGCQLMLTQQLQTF

RB = assay: as above
Sequence of RB (P06400 2-928): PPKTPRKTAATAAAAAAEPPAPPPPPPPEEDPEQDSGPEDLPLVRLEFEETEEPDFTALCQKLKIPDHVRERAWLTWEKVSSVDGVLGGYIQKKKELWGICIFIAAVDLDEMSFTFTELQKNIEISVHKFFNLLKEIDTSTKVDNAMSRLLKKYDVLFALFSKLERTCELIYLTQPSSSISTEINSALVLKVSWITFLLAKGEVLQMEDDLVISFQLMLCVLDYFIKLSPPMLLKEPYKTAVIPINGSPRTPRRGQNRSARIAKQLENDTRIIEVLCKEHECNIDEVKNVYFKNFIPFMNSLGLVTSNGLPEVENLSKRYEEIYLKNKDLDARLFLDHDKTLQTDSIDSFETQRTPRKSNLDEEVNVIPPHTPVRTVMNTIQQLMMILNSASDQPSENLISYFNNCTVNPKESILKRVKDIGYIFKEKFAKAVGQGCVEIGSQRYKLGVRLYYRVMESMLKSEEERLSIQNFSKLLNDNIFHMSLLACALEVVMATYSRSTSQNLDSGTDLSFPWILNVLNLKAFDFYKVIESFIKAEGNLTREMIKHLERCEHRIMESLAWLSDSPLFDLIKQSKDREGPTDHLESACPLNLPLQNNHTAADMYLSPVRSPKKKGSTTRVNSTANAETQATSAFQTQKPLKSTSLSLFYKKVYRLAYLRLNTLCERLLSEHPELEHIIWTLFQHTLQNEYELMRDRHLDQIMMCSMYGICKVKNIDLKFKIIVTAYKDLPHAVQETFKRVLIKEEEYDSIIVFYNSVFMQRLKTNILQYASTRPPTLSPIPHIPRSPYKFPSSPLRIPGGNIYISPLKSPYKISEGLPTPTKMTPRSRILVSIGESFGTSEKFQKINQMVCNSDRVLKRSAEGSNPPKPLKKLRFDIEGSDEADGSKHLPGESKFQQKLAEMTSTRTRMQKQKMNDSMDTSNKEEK

TnsD (1 to 507) wt = target: T2, TnsD (1 to 507) wt; assay: as above; details: partners not purified
TnsD (1 to 350) = target: T3, TnsD (1 to 350); assay: as above; details: partners not purified
TnsD (1 to 399) = target: T4, TnsD (1 to 399); assay: as above; details: partners not purified
TnsD (1 to 309) = target: T5, TnsD (1 to 309); assay: as above; details: partners not purified
TnsD (1 to 375) = target: T6, TnsD (1 to 375); assay: as above; details: partners not purified

Sequence of E2F1 (natural protein) (Q01094 whole entry): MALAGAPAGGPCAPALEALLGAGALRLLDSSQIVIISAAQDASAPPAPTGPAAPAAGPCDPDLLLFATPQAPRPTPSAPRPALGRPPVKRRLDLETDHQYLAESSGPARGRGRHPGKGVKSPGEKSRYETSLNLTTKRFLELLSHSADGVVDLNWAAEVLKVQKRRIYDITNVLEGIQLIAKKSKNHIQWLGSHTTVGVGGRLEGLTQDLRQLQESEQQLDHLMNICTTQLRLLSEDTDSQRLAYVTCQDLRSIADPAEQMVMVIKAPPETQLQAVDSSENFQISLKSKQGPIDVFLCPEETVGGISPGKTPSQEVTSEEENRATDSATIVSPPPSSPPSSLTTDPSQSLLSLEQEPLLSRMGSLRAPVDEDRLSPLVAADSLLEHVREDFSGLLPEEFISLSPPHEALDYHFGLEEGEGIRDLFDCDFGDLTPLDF
Sequence of Fos (natural protein) (P12841 whole entry): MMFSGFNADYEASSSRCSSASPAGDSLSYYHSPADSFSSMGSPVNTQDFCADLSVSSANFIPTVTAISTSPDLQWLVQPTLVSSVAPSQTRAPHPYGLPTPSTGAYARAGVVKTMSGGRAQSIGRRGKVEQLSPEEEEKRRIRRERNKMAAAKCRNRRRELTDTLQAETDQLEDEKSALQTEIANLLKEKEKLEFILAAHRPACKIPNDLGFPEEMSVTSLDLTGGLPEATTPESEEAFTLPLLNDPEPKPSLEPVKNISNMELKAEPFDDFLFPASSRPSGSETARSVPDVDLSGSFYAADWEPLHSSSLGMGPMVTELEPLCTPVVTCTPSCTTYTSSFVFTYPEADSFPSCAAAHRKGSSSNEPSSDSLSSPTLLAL

Row | Molecule | binding signal (relative to wt site) [1] | also measured
1 | CCGCGTAACCTGGCAAAATCGGTTACGGGTGAGTAA (double strand) [attTn7 +30 mutant] | 0.5 | 
2 | CCGCGTAACCTGGCAAAATCGTTTACGGTTGAGTAA (double strand) [attTn7 +37 mutant] | 0.5 | 
3 | CCGCGTAACCTGGCAAAATCGGTTACGTTTGAGTAA (double strand) [attTn7 +31 mutant] | < 0.2 | 
4 | CCGCGTAACCTGGAAAAATCGGTTACGGTTGAGTAA (double strand) [attTn7 +45 mutant] | < 0.2 | 
5 | CCGCGTAACCTGGCAACATCGGTTACGGTTGAGTAA (double strand) [attTn7 +42 mutant] | < 0.2 | 
6 | CCGCGTACCCTGGCAAAATCGGTTACGGTTGAGTAA (double strand) [attTn7 +51 mutant] | < 0.2 | 
7 | CCGCGTAACCGGGCAAAATCGGTTACGGTTGAGTAA (double strand) [attTn7 +48 mutant] | 0.5 | 
8 | CCGCGTCACCTGGCAAAATCGGTTACGGTTGAGTAA (double strand) [attTn7 +52 mutant] | 0.5 | 
9 | Fos (natural protein) |  | β-galactosidase activity (Jun): 5
10 | CCGCGTAACCTGGCAAAATCGGTTAAGGTTGAGTAA (double strand) [attTn7 +33 mutant] | < 0.2 | 
11 | E2F1 (natural protein) |  | β-galactosidase activity (RB): 1
12 | CCGCTTAACCTGGCAAAATCGGTTACGGTTGAGTAA (double strand) [attTn7 +54 mutant] | < 0.2 | 
13 | CCGCGTAACCTGGCACAATCGGTTACGGTTGAGTAA (double strand) [attTn7 +43 mutant] | < 0.2 | 
14 | TnsC (1 to 480) (domain or fragment, E. coli (transposon Tn7), UniProt P05846 1-480, looked up, TnsC of transposon Tn7, residues 1 to 480; also called TnsC with deletion of 75 amino acids from the C terminus; source: yeast two-hybrid fusion) MSATRIQAVYRDTGVEAYRDNPFIEALPPLQESVNSAASLKSSLQLTSSDLQKSRVIRAHTICRIPDDYFQPLGTHLLLSERISVMIRGGYVGRNPKTGDLQKHLQNGYERVQTGELETFRFEEARSTAQSLLLIGCSGSGKTTSLHRILATYPQVIYHRELNVEQVVYLKIDCSHNGSLKEICLNFFRALDRALGSNYERRYGLKRHGIETMLALMSQIANAHALGLLVIDEIQHLSRSRSGGSQEMLNFFVTMVNIIGVPVMLIGTPKAREIFEADLRSARRGAGFGAIFWDPIQQTQRGKPNQEWIAFTDNLWQLQLLQRKDALLSDEVRDVWYELSQGVMDIVVKLFVLAQLRALALGNERITAGLLRQVYQDELKPVHPMLEALRSGIPERIARYSDLVVPEIDKRLIQLQLDIAAIQEQTPEEKALQELDTEDQRHLYLMLKEDYDSSLLIPTIKKAFSQNPTMTRQKLLPLVL |  | β-galactosidase activity (TnsD (1 to 507) wt): 1
15 | TnsC (1 to 555) wt (natural protein, E. coli (transposon Tn7), UniProt P05846 1-555, looked up, TnsC, transposition protein of the bacterial transposon Tn7, residues 1 to 555 (full-length is 555 aa); TnsC was cloned into pPC86 (ProQuest Two-Hybrid System); also called full-length TnsC; source: yeast two-hybrid fusion) MSATRIQAVYRDTGVEAYRDNPFIEALPPLQESVNSAASLKSSLQLTSSDLQKSRVIRAHTICRIPDDYFQPLGTHLLLSERISVMIRGGYVGRNPKTGDLQKHLQNGYERVQTGELETFRFEEARSTAQSLLLIGCSGSGKTTSLHRILATYPQVIYHRELNVEQVVYLKIDCSHNGSLKEICLNFFRALDRALGSNYERRYGLKRHGIETMLALMSQIANAHALGLLVIDEIQHLSRSRSGGSQEMLNFFVTMVNIIGVPVMLIGTPKAREIFEADLRSARRGAGFGAIFWDPIQQTQRGKPNQEWIAFTDNLWQLQLLQRKDALLSDEVRDVWYELSQGVMDIVVKLFVLAQLRALALGNERITAGLLRQVYQDELKPVHPMLEALRSGIPERIARYSDLVVPEIDKRLIQLQLDIAAIQEQTPEEKALQELDTEDQRHLYLMLKEDYDSSLLIPTIKKAFSQNPTMTRQKLLPLVLQWLMEGETVVSELEKPSKSKKVSAIKVVKPSDWDSLPDTDLRYIYSQRQPEKTMHERLKGKGVIVDMASLFKQAG |  | β-galactosidase activity (TnsD (1 to 350)): 4.5; β-galactosidase activity (TnsD (1 to 507) wt): 1; β-galactosidase activity (TnsD (1 to 399)): 4.5; β-galactosidase activity (TnsD (1 to 309)): 4.5; β-galactosidase activity (TnsD (1 to 375)): 5
16 | TnsC (1 to 293) (domain or fragment, E. coli (transposon Tn7), UniProt P05846 1-293, looked up, TnsC of transposon Tn7, residues 1 to 293; source: yeast two-hybrid fusion) MSATRIQAVYRDTGVEAYRDNPFIEALPPLQESVNSAASLKSSLQLTSSDLQKSRVIRAHTICRIPDDYFQPLGTHLLLSERISVMIRGGYVGRNPKTGDLQKHLQNGYERVQTGELETFRFEEARSTAQSLLLIGCSGSGKTTSLHRILATYPQVIYHRELNVEQVVYLKIDCSHNGSLKEICLNFFRALDRALGSNYERRYGLKRHGIETMLALMSQIANAHALGLLVIDEIQHLSRSRSGGSQEMLNFFVTMVNIIGVPVMLIGTPKAREIFEADLRSARRGAGFGAIFW |  | β-galactosidase activity (TnsD (1 to 507) wt): 0.2
17 | TnsC (1 to 384) (domain or fragment, E. coli (transposon Tn7), UniProt P05846 1-384, looked up, TnsC of transposon Tn7, residues 1 to 384; also called TnsC with deletion of 171 amino acids from the C terminus; source: yeast two-hybrid fusion) MSATRIQAVYRDTGVEAYRDNPFIEALPPLQESVNSAASLKSSLQLTSSDLQKSRVIRAHTICRIPDDYFQPLGTHLLLSERISVMIRGGYVGRNPKTGDLQKHLQNGYERVQTGELETFRFEEARSTAQSLLLIGCSGSGKTTSLHRILATYPQVIYHRELNVEQVVYLKIDCSHNGSLKEICLNFFRALDRALGSNYERRYGLKRHGIETMLALMSQIANAHALGLLVIDEIQHLSRSRSGGSQEMLNFFVTMVNIIGVPVMLIGTPKAREIFEADLRSARRGAGFGAIFWDPIQQTQRGKPNQEWIAFTDNLWQLQLLQRKDALLSDEVRDVWYELSQGVMDIVVKLFVLAQLRALALGNERITAGLLRQVYQDELKPVHP |  | β-galactosidase activity (TnsD (1 to 507) wt): 1
